PMC2928128
One block for each binder: values may come before it.

Molecular target: GST-CDH23Δexon68ΔITEL (residues 847-1075)
Test: SPR

- Kd: > 5 µM
B1: harmonin-a Nter domain (residues 1-79) (domain or fragment)
chain: MDRKVAREFRHKVDFLIENDAEKDYLYDVLRMYHQTMDVAVLVGDLKLVINEPNRLPLFDAIRPLIPLKHQVEYDQLTP

- Kd: 0.058 µM
B2: harmonin-a Nter-PDZ1 fragment (residues 1-203) (domain or fragment)
chain: MDRKVAREFRHKVDFLIENDAEKDYLYDVLRMYHQTMDVAVLVGDLKLVINEPNRLPLFDAIRPLIPLKHQVEYDQLTPRRSRKLKEVRLDRLHPEGLGLSVRGGLEFGCGLFISHLIKGGQADSVGLQVGDEIVRINGYSISSCTHEEVINLIRTKKTVSIKVRHIGLIPVKSSPEESLKWQYVDQFVSESGGVRGGLGSPG
